Assay results reported in patent US20260015399A1 (Boehringer Ingelheim, published 2026).
*1 amine or outer side, *2 acyl side, *3 side chain or, on linkers, in order; H or OH if unused. Side-chain parts run from the residue outwards. The star is where a group is joined. C18 diacid = O=C(O)CCCCCCCCCCCCCCCCC(=O)*; γGlu = O=C(O)[C@H](CCC(=O)[*:2])N[*:1]; Isovaleryl = CC(C)CC(=O)*; Ahx = NCCCCCC(=O)O

Columns and labels:
[1] = target: T1, human NPY2 receptor (human, UniProt P49146 1-381); experiment: cell-based or functional assay
T1 sequence (looked up): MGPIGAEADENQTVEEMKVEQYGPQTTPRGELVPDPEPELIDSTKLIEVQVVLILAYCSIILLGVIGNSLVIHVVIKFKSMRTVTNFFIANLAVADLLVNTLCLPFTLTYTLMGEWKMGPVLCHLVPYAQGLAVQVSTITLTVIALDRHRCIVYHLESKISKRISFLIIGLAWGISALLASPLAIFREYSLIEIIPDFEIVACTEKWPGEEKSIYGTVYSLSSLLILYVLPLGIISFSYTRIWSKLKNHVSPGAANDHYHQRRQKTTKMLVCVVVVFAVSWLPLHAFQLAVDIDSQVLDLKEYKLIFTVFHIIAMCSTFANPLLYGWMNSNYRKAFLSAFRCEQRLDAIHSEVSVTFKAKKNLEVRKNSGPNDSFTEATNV

[2] = target: T2, human NPY5 receptor (human, UniProt Q15761 1-445); experiment: cell-based or functional assay
T2 sequence (looked up): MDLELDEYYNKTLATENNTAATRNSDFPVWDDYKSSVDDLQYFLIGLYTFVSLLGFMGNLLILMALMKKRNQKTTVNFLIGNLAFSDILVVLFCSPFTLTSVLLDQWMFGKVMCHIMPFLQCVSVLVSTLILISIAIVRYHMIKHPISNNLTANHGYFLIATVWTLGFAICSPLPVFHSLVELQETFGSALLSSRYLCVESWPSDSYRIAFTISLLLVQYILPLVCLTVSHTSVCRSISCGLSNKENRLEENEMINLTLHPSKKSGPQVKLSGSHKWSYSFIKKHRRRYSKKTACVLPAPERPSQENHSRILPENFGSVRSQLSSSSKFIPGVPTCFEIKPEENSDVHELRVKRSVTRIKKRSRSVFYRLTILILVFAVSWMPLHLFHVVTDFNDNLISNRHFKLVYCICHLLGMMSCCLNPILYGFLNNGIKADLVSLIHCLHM

[3] = target: T1, human NPY2 receptor; experiment: RLB: displacement of 125I-PYY(1-36) from hNPY2R membranes

B1: Compound 16 (peptide)
peptide: Isovaleryl-APEK([Ahx-γGlu-C18 diacid])PEEDATPEELQKYYVSLRHYYNWLTRQRY-NH2
SMILES: CC(C)CC(=O)N[C@@H](C)C(=O)N1CCC[C@H]1C(=O)N[C@@H](CCC(=O)O)C(=O)N[C@@H](CCCCNC(=O)CCCCCNC(=O)CC[C@H](NC(=O)CCCCCCCCCCCCCCCCC(=O)O)C(=O)O)C(=O)N1CCC[C@H]1C(=O)N[C@@H](CCC(=O)O)C(=O)N[C@@H](CCC(=O)O)C(=O)N[C@@H](CC(=O)O)C(=O)N[C@@H](C)C(=O)N[C@H](C(=O)N1CCC[C@H]1C(=O)N[C@@H](CCC(=O)O)C(=O)N[C@@H](CCC(=O)O)C(=O)N[C@@H](CC(C)C)C(=O)N[C@@H](CCC(N)=O)C(=O)N[C@@H](CCCCN)C(=O)N[C@@H](Cc1ccc(O)cc1)C(=O)N[C@@H](Cc1ccc(O)cc1)C(=O)N[C@H](C(=O)N[C@@H](CO)C(=O)N[C@@H](CC(C)C)C(=O)N[C@@H](CCCNC(=N)N)C(=O)N[C@@H](Cc1c[nH]cn1)C(=O)N[C@@H](Cc1ccc(O)cc1)C(=O)N[C@@H](Cc1ccc(O)cc1)C(=O)N[C@@H](CC(N)=O)C(=O)N[C@@H](Cc1c[nH]c2ccccc12)C(=O)N[C@@H](CC(C)C)C(=O)N[C@H](C(=O)N[C@@H](CCCNC(=N)N)C(=O)N[C@@H](CCC(N)=O)C(=O)N[C@@H](CCCNC(=N)N)C(=O)N[C@@H](Cc1ccc(O)cc1)C(N)=O)[C@@H](C)O)C(C)C)[C@@H](C)O
[1]
  EC50, HTRF cAMP Gi assay: 0.31 nM
[2]
  EC50, HTRF cAMP Gi assay: > 5000 nM
[3]
  Ki: 2.81 nM

B2: Compound 72 (peptide)
peptide: Isovaleryl-APEK([Ahx-γGlu-C18 diacid])PEADAEPEELQRYYVSLRHYYNWLTRQRY-NH2
SMILES: CC(C)CC(=O)N[C@@H](C)C(=O)N1CCC[C@H]1C(=O)N[C@@H](CCC(=O)O)C(=O)N[C@@H](CCCCNC(=O)CCCCCNC(=O)CC[C@H](NC(=O)CCCCCCCCCCCCCCCCC(=O)O)C(=O)O)C(=O)N1CCC[C@H]1C(=O)N[C@@H](CCC(=O)O)C(=O)N[C@@H](C)C(=O)N[C@@H](CC(=O)O)C(=O)N[C@@H](C)C(=O)N[C@@H](CCC(=O)O)C(=O)N1CCC[C@H]1C(=O)N[C@@H](CCC(=O)O)C(=O)N[C@@H](CCC(=O)O)C(=O)N[C@@H](CC(C)C)C(=O)N[C@@H](CCC(N)=O)C(=O)N[C@@H](CCCNC(=N)N)C(=O)N[C@@H](Cc1ccc(O)cc1)C(=O)N[C@@H](Cc1ccc(O)cc1)C(=O)N[C@H](C(=O)N[C@@H](CO)C(=O)N[C@@H](CC(C)C)C(=O)N[C@@H](CCCNC(=N)N)C(=O)N[C@@H](Cc1c[nH]cn1)C(=O)N[C@@H](Cc1ccc(O)cc1)C(=O)N[C@@H](Cc1ccc(O)cc1)C(=O)N[C@@H](CC(N)=O)C(=O)N[C@@H](Cc1c[nH]c2ccccc12)C(=O)N[C@@H](CC(C)C)C(=O)N[C@H](C(=O)N[C@@H](CCCNC(=N)N)C(=O)N[C@@H](CCC(N)=O)C(=O)N[C@@H](CCCNC(=N)N)C(=O)N[C@@H](Cc1ccc(O)cc1)C(N)=O)[C@@H](C)O)C(C)C
[1]
  EC50, HTRF cAMP Gi assay: 0.197 nM
[2]
  EC50, HTRF cAMP Gi assay: > 5000 nM
[3]
  Ki: 2.79 nM

B3: Compound 52 (peptide)
peptide: Isovaleryl-APEK([Ahx-γGlu-C18 diacid])PEEDASPEEIQRYYVELRHYYNWLTRQRY-NH2
SMILES: CC[C@H](C)[C@H](NC(=O)[C@H](CCC(=O)O)NC(=O)[C@H](CCC(=O)O)NC(=O)[C@@H]1CCCN1C(=O)[C@H](CO)NC(=O)[C@H](C)NC(=O)[C@H](CC(=O)O)NC(=O)[C@H](CCC(=O)O)NC(=O)[C@H](CCC(=O)O)NC(=O)[C@@H]1CCCN1C(=O)[C@H](CCCCNC(=O)CCCCCNC(=O)CC[C@H](NC(=O)CCCCCCCCCCCCCCCCC(=O)O)C(=O)O)NC(=O)[C@H](CCC(=O)O)NC(=O)[C@@H]1CCCN1C(=O)[C@H](C)NC(=O)CC(C)C)C(=O)N[C@@H](CCC(N)=O)C(=O)N[C@@H](CCCNC(=N)N)C(=O)N[C@@H](Cc1ccc(O)cc1)C(=O)N[C@@H](Cc1ccc(O)cc1)C(=O)N[C@H](C(=O)N[C@@H](CCC(=O)O)C(=O)N[C@@H](CC(C)C)C(=O)N[C@@H](CCCNC(=N)N)C(=O)N[C@@H](Cc1c[nH]cn1)C(=O)N[C@@H](Cc1ccc(O)cc1)C(=O)N[C@@H](Cc1ccc(O)cc1)C(=O)N[C@@H](CC(N)=O)C(=O)N[C@@H](Cc1c[nH]c2ccccc12)C(=O)N[C@@H](CC(C)C)C(=O)N[C@H](C(=O)N[C@@H](CCCNC(=N)N)C(=O)N[C@@H](CCC(N)=O)C(=O)N[C@@H](CCCNC(=N)N)C(=O)N[C@@H](Cc1ccc(O)cc1)C(N)=O)[C@@H](C)O)C(C)C
[1]
  EC50, HTRF cAMP Gi assay: 0.176 nM
[2]
  EC50, HTRF cAMP Gi assay: > 5000 nM
[3]
  Ki: 2.39 nM

B4: Compound 26 (peptide)
peptide: Isovaleryl-APAK([Ahx-γGlu-C18 diacid])PEEDATPEELQRYYVSLRHYYNWLTRQRY-NH2
SMILES: CC(C)CC(=O)N[C@@H](C)C(=O)N1CCC[C@H]1C(=O)N[C@@H](C)C(=O)N[C@@H](CCCCNC(=O)CCCCCNC(=O)CC[C@H](NC(=O)CCCCCCCCCCCCCCCCC(=O)O)C(=O)O)C(=O)N1CCC[C@H]1C(=O)N[C@@H](CCC(=O)O)C(=O)N[C@@H](CCC(=O)O)C(=O)N[C@@H](CC(=O)O)C(=O)N[C@@H](C)C(=O)N[C@H](C(=O)N1CCC[C@H]1C(=O)N[C@@H](CCC(=O)O)C(=O)N[C@@H](CCC(=O)O)C(=O)N[C@@H](CC(C)C)C(=O)N[C@@H](CCC(N)=O)C(=O)N[C@@H](CCCNC(=N)N)C(=O)N[C@@H](Cc1ccc(O)cc1)C(=O)N[C@@H](Cc1ccc(O)cc1)C(=O)N[C@H](C(=O)N[C@@H](CO)C(=O)N[C@@H](CC(C)C)C(=O)N[C@@H](CCCNC(=N)N)C(=O)N[C@@H](Cc1c[nH]cn1)C(=O)N[C@@H](Cc1ccc(O)cc1)C(=O)N[C@@H](Cc1ccc(O)cc1)C(=O)N[C@@H](CC(N)=O)C(=O)N[C@@H](Cc1c[nH]c2ccccc12)C(=O)N[C@@H](CC(C)C)C(=O)N[C@H](C(=O)N[C@@H](CCCNC(=N)N)C(=O)N[C@@H](CCC(N)=O)C(=O)N[C@@H](CCCNC(=N)N)C(=O)N[C@@H](Cc1ccc(O)cc1)C(N)=O)[C@@H](C)O)C(C)C)[C@@H](C)O
[1]
  EC50, HTRF cAMP Gi assay: 0.108 nM
[2]
  EC50, HTRF cAMP Gi assay: > 5000 nM
[3]
  Ki: 5.64 nM

B5: Compound 23 (peptide)
peptide: Isovaleryl-APEK([Ahx-γGlu-C18 diacid])PEEEASPEELQRYYVSLRHYYNWLTRQRY-NH2
SMILES: CC(C)CC(=O)N[C@@H](C)C(=O)N1CCC[C@H]1C(=O)N[C@@H](CCC(=O)O)C(=O)N[C@@H](CCCCNC(=O)CCCCCNC(=O)CC[C@H](NC(=O)CCCCCCCCCCCCCCCCC(=O)O)C(=O)O)C(=O)N1CCC[C@H]1C(=O)N[C@@H](CCC(=O)O)C(=O)N[C@@H](CCC(=O)O)C(=O)N[C@@H](CCC(=O)O)C(=O)N[C@@H](C)C(=O)N[C@@H](CO)C(=O)N1CCC[C@H]1C(=O)N[C@@H](CCC(=O)O)C(=O)N[C@@H](CCC(=O)O)C(=O)N[C@@H](CC(C)C)C(=O)N[C@@H](CCC(N)=O)C(=O)N[C@@H](CCCNC(=N)N)C(=O)N[C@@H](Cc1ccc(O)cc1)C(=O)N[C@@H](Cc1ccc(O)cc1)C(=O)N[C@H](C(=O)N[C@@H](CO)C(=O)N[C@@H](CC(C)C)C(=O)N[C@@H](CCCNC(=N)N)C(=O)N[C@@H](Cc1c[nH]cn1)C(=O)N[C@@H](Cc1ccc(O)cc1)C(=O)N[C@@H](Cc1ccc(O)cc1)C(=O)N[C@@H](CC(N)=O)C(=O)N[C@@H](Cc1c[nH]c2ccccc12)C(=O)N[C@@H](CC(C)C)C(=O)N[C@H](C(=O)N[C@@H](CCCNC(=N)N)C(=O)N[C@@H](CCC(N)=O)C(=O)N[C@@H](CCCNC(=N)N)C(=O)N[C@@H](Cc1ccc(O)cc1)C(N)=O)[C@@H](C)O)C(C)C
[1]
  EC50, HTRF cAMP Gi assay: 0.181 nM
[2]
  EC50, HTRF cAMP Gi assay: > 5000 nM
[3]
  Ki: 12.6 nM
